In patent US20150344540A1, “NOVEL GLP-1 RECEPTOR AGONISTS WITH CHOLESTEROL EFFLUX ACTIVITY” (NOVO NORDISK A/S, priority 2012, published 2015):
Where no end group is shown, it is not given here. [ ]: non-standard residue; d: D form. Aib = CC(C)(N)C(=O)O

Biological target: human GLP-1 receptor (human, UniProt P43220)
Test: cell-based or functional assay

Row | Binder | CRE luciferase EC50, 0% HSA [nM] | CRE luciferase EC50, 1% HSA [nM]
1 | H[Aib]EGTFTSDVSSYLEGEAVKEFIAWLVEKVKEK-NH2 (N-terminus assumed; SMILES CC[C@H](C)[C@H](NC(=O)[C@H](Cc1ccccc1)NC(=O)[C@H](CCC(=O)O)NC(=O)[C@H](CCCCN)NC(=O)[C@@H](NC(=O)[C@H](C)NC(=O)[C@H](CCC(=O)O)NC(=O)CNC(=O)[C@H](CCC(=O)O)NC(=O)[C@H](CC(C)C)NC(=O)[C@H](Cc1ccc(O)cc1)NC(=O)[C@H](CO)NC(=O)[C@H](CO)NC(=O)[C@@H](NC(=O)[C@H](CC(=O)O)NC(=O)[C@H](CO)NC(=O)[C@@H](NC(=O)[C@H](Cc1ccccc1)NC(=O)[C@@H](NC(=O)CNC(=O)[C@H](CCC(=O)O)NC(=O)C(C)(C)NC(=O)[C@@H](N)Cc1c[nH]cn1)[C@@H](C)O)[C@@H](C)O)C(C)C)C(C)C)C(=O)N[C@@H](C)C(=O)N[C@@H](Cc1c[nH]c2ccccc12)C(=O)N[C@@H](CC(C)C)C(=O)N[C@H](C(=O)N[C@@H](CCC(=O)O)C(=O)N[C@@H](CCCCN)C(=O)N[C@H](C(=O)N[C@@H](CCCCN)C(=O)N[C@@H](CCC(=O)O)C(=O)N[C@@H](CCCCN)C(N)=O)C(C)C)C(C)C) [[Aib8,Glu23,Val25,Glu34,Lys35,Val36,Lys37]-GLP-1-(7-37)-peptidyl-Glu-Lys amide] | 0.043 | 0.014
2 | HGEGTFTSDVSSYLEEEAVKEFIAWLVEKVKEKL-NH2 [[Gly8,Glu22,Glu23,Val25,Glu34,Lys35,Val36,Lys37]-GLP-1-(7-37)-peptidyl-Glu-Lys-Leu amide] | 0.3 | 0.076
3 | H[Aib]EGTFTSDVSSYLEGEAVKEFIAWLVKK[Aib]KEFL-NH2 (N-terminus assumed; SMILES CC[C@H](C)[C@H](NC(=O)[C@H](Cc1ccccc1)NC(=O)[C@H](CCC(=O)O)NC(=O)[C@H](CCCCN)NC(=O)[C@@H](NC(=O)[C@H](C)NC(=O)[C@H](CCC(=O)O)NC(=O)CNC(=O)[C@H](CCC(=O)O)NC(=O)[C@H](CC(C)C)NC(=O)[C@H](Cc1ccc(O)cc1)NC(=O)[C@H](CO)NC(=O)[C@H](CO)NC(=O)[C@@H](NC(=O)[C@H](CC(=O)O)NC(=O)[C@H](CO)NC(=O)[C@@H](NC(=O)[C@H](Cc1ccccc1)NC(=O)[C@@H](NC(=O)CNC(=O)[C@H](CCC(=O)O)NC(=O)C(C)(C)NC(=O)[C@@H](N)Cc1c[nH]cn1)[C@@H](C)O)[C@@H](C)O)C(C)C)C(C)C)C(=O)N[C@@H](C)C(=O)N[C@@H](Cc1c[nH]c2ccccc12)C(=O)N[C@@H](CC(C)C)C(=O)N[C@H](C(=O)N[C@@H](CCCCN)C(=O)N[C@@H](CCCCN)C(=O)NC(C)(C)C(=O)N[C@@H](CCCCN)C(=O)N[C@@H](CCC(=O)O)C(=O)N[C@@H](Cc1ccccc1)C(=O)N[C@@H](CC(C)C)C(N)=O)C(C)C) [[Aib8,Glu23,Val25,Lys35,Aib36,Lys37]-GLP-1-(7-37)-peptidyl-Glu-Phe-Leu amide] | 0.921 | 0.276
4 | H[Aib]EGTFTSDVSSYLEGEAVKEFIEWLVEKVKEKL-NH2 (N-terminus assumed; SMILES CC[C@H](C)[C@H](NC(=O)[C@H](Cc1ccccc1)NC(=O)[C@H](CCC(=O)O)NC(=O)[C@H](CCCCN)NC(=O)[C@@H](NC(=O)[C@H](C)NC(=O)[C@H](CCC(=O)O)NC(=O)CNC(=O)[C@H](CCC(=O)O)NC(=O)[C@H](CC(C)C)NC(=O)[C@H](Cc1ccc(O)cc1)NC(=O)[C@H](CO)NC(=O)[C@H](CO)NC(=O)[C@@H](NC(=O)[C@H](CC(=O)O)NC(=O)[C@H](CO)NC(=O)[C@@H](NC(=O)[C@H](Cc1ccccc1)NC(=O)[C@@H](NC(=O)CNC(=O)[C@H](CCC(=O)O)NC(=O)C(C)(C)NC(=O)[C@@H](N)Cc1c[nH]cn1)[C@@H](C)O)[C@@H](C)O)C(C)C)C(C)C)C(=O)N[C@@H](CCC(=O)O)C(=O)N[C@@H](Cc1c[nH]c2ccccc12)C(=O)N[C@@H](CC(C)C)C(=O)N[C@H](C(=O)N[C@@H](CCC(=O)O)C(=O)N[C@@H](CCCCN)C(=O)N[C@H](C(=O)N[C@@H](CCCCN)C(=O)N[C@@H](CCC(=O)O)C(=O)N[C@@H](CCCCN)C(=O)N[C@@H](CC(C)C)C(N)=O)C(C)C)C(C)C) [[Aib8,Glu23,Val25,Glu30,Glu34,Lys35,Val36,Lys37]-GLP-1-(7-37)-peptidyl-Glu-Lys-Leu amide] | 0.163 | 0.039
5 | H[Aib]EGTFTSDVSSYLEGEAVKEFIAWLVEKGKEFL-NH2 (N-terminus assumed; SMILES CC[C@H](C)[C@H](NC(=O)[C@H](Cc1ccccc1)NC(=O)[C@H](CCC(=O)O)NC(=O)[C@H](CCCCN)NC(=O)[C@@H](NC(=O)[C@H](C)NC(=O)[C@H](CCC(=O)O)NC(=O)CNC(=O)[C@H](CCC(=O)O)NC(=O)[C@H](CC(C)C)NC(=O)[C@H](Cc1ccc(O)cc1)NC(=O)[C@H](CO)NC(=O)[C@H](CO)NC(=O)[C@@H](NC(=O)[C@H](CC(=O)O)NC(=O)[C@H](CO)NC(=O)[C@@H](NC(=O)[C@H](Cc1ccccc1)NC(=O)[C@@H](NC(=O)CNC(=O)[C@H](CCC(=O)O)NC(=O)C(C)(C)NC(=O)[C@@H](N)Cc1c[nH]cn1)[C@@H](C)O)[C@@H](C)O)C(C)C)C(C)C)C(=O)N[C@@H](C)C(=O)N[C@@H](Cc1c[nH]c2ccccc12)C(=O)N[C@@H](CC(C)C)C(=O)N[C@H](C(=O)N[C@@H](CCC(=O)O)C(=O)N[C@@H](CCCCN)C(=O)NCC(=O)N[C@@H](CCCCN)C(=O)N[C@@H](CCC(=O)O)C(=O)N[C@@H](Cc1ccccc1)C(=O)N[C@@H](CC(C)C)C(N)=O)C(C)C) [[Aib8,Glu23,Val25,Glu34,Lys35,Gly36,Lys37]-GLP-1-(7-37)-peptidyl-Glu-Phe-Leu amide] | 0.034 | 0.007
6 | H[Aib]EGTFTSDVSSYLEGEAVKEFIAWLVEKVKGFL-NH2 (N-terminus assumed; SMILES CC[C@H](C)[C@H](NC(=O)[C@H](Cc1ccccc1)NC(=O)[C@H](CCC(=O)O)NC(=O)[C@H](CCCCN)NC(=O)[C@@H](NC(=O)[C@H](C)NC(=O)[C@H](CCC(=O)O)NC(=O)CNC(=O)[C@H](CCC(=O)O)NC(=O)[C@H](CC(C)C)NC(=O)[C@H](Cc1ccc(O)cc1)NC(=O)[C@H](CO)NC(=O)[C@H](CO)NC(=O)[C@@H](NC(=O)[C@H](CC(=O)O)NC(=O)[C@H](CO)NC(=O)[C@@H](NC(=O)[C@H](Cc1ccccc1)NC(=O)[C@@H](NC(=O)CNC(=O)[C@H](CCC(=O)O)NC(=O)C(C)(C)NC(=O)[C@@H](N)Cc1c[nH]cn1)[C@@H](C)O)[C@@H](C)O)C(C)C)C(C)C)C(=O)N[C@@H](C)C(=O)N[C@@H](Cc1c[nH]c2ccccc12)C(=O)N[C@@H](CC(C)C)C(=O)N[C@H](C(=O)N[C@@H](CCC(=O)O)C(=O)N[C@@H](CCCCN)C(=O)N[C@H](C(=O)N[C@@H](CCCCN)C(=O)NCC(=O)N[C@@H](Cc1ccccc1)C(=O)N[C@@H](CC(C)C)C(N)=O)C(C)C)C(C)C) [[Aib8,Glu23,Val25,Glu34,Lys35,Val36,Lys37]-GLP-1-(7-37)-peptidyl-Gly-Phe-Leu amide] | 0.129 | 0.032
7 | H[Aib]EGTFTSDVSSYLEGEAVKEFIAWLVEKVKEEL-NH2 (N-terminus assumed; SMILES CC[C@H](C)[C@H](NC(=O)[C@H](Cc1ccccc1)NC(=O)[C@H](CCC(=O)O)NC(=O)[C@H](CCCCN)NC(=O)[C@@H](NC(=O)[C@H](C)NC(=O)[C@H](CCC(=O)O)NC(=O)CNC(=O)[C@H](CCC(=O)O)NC(=O)[C@H](CC(C)C)NC(=O)[C@H](Cc1ccc(O)cc1)NC(=O)[C@H](CO)NC(=O)[C@H](CO)NC(=O)[C@@H](NC(=O)[C@H](CC(=O)O)NC(=O)[C@H](CO)NC(=O)[C@@H](NC(=O)[C@H](Cc1ccccc1)NC(=O)[C@@H](NC(=O)CNC(=O)[C@H](CCC(=O)O)NC(=O)C(C)(C)NC(=O)[C@@H](N)Cc1c[nH]cn1)[C@@H](C)O)[C@@H](C)O)C(C)C)C(C)C)C(=O)N[C@@H](C)C(=O)N[C@@H](Cc1c[nH]c2ccccc12)C(=O)N[C@@H](CC(C)C)C(=O)N[C@H](C(=O)N[C@@H](CCC(=O)O)C(=O)N[C@@H](CCCCN)C(=O)N[C@H](C(=O)N[C@@H](CCCCN)C(=O)N[C@@H](CCC(=O)O)C(=O)N[C@@H](CCC(=O)O)C(=O)N[C@@H](CC(C)C)C(N)=O)C(C)C)C(C)C) [[Aib8,Glu23,Val25,Glu34,Lys35,Val36,Lys37]-GLP-1-(7-37)-peptidyl-Glu-Glu-Leu amide] | 0.025 | 0.016
8 | H[Aib]EGTFTSDVSSYLEGEAVKEFIAWLVEKVKDFL-NH2 (N-terminus assumed; SMILES CC[C@H](C)[C@H](NC(=O)[C@H](Cc1ccccc1)NC(=O)[C@H](CCC(=O)O)NC(=O)[C@H](CCCCN)NC(=O)[C@@H](NC(=O)[C@H](C)NC(=O)[C@H](CCC(=O)O)NC(=O)CNC(=O)[C@H](CCC(=O)O)NC(=O)[C@H](CC(C)C)NC(=O)[C@H](Cc1ccc(O)cc1)NC(=O)[C@H](CO)NC(=O)[C@H](CO)NC(=O)[C@@H](NC(=O)[C@H](CC(=O)O)NC(=O)[C@H](CO)NC(=O)[C@@H](NC(=O)[C@H](Cc1ccccc1)NC(=O)[C@@H](NC(=O)CNC(=O)[C@H](CCC(=O)O)NC(=O)C(C)(C)NC(=O)[C@@H](N)Cc1c[nH]cn1)[C@@H](C)O)[C@@H](C)O)C(C)C)C(C)C)C(=O)N[C@@H](C)C(=O)N[C@@H](Cc1c[nH]c2ccccc12)C(=O)N[C@@H](CC(C)C)C(=O)N[C@H](C(=O)N[C@@H](CCC(=O)O)C(=O)N[C@@H](CCCCN)C(=O)N[C@H](C(=O)N[C@@H](CCCCN)C(=O)N[C@@H](CC(=O)O)C(=O)N[C@@H](Cc1ccccc1)C(=O)N[C@@H](CC(C)C)C(N)=O)C(C)C)C(C)C) [[Aib8,Glu23,Val25,Glu34,Lys35,Val36,Lys37]-GLP-1-(7-37)-peptidyl-Asp-Phe-Leu amide] | 0.323 | 0.128
